According to article PMC7507306, “Highly active rubiscos discovered by systematic interrogation of natural sequence diversity” (The EMBO Journal, 2020):
One block for each molecule: values may come before it.

Experiments:
Test in all cases: SEC; analytical gel filtration of the purified rubisco; oligomer state read from the elution; conditions not shown (Appendix)
[1] = target: Acidithiobacillus ferrooxidans rubisco (form-II) (Acidithiobacillus ferrooxidans)
[2] = target: Gallionella sp. rubisco (form-II) (Gallionella sp.)
[3] = target: Sulfurivirga caldicuralii rubisco (form-II) (Sulfurivirga caldicuralii)
[4] = target: Zetaproteobacteria_53_45 rubisco (form-II) (Zetaproteobacteria_53_45)
[5] = target: Zetaproteobacterium rubisco (form-II) (Zetaproteobacterium)
[6] = target: the molecule itself

stoichiometry N [1]: 6
Molecule: Acidithiobacillus ferrooxidans rubisco (form-II) (enzyme)

stoichiometry N [3]: 4
Molecule: Sulfurivirga caldicuralii rubisco (form-II) (enzyme)

More lines, now with the values behind:

Molecule: Gallionella sp. rubisco (form-II) (enzyme)
stoichiometry N [2]: 2

Molecule: Zetaproteobacteria_53_45 rubisco (form-II) (enzyme)
stoichiometry N [4]: 2

Molecule: Zetaproteobacterium rubisco (form-II) (enzyme)
stoichiometry N [5]: 2

B1: Hydrogenovibrio marinus rubisco (form-II) (enzyme, UniProt Q59462 1-463, looked up)
chain: MDQSNRYADLTLTEEKLVADGNHLLVAYRLKPAAGYGFLEVAAHVAAESSTGTNVEVSTTDDFTRGVDALVYEIDEAAFGDKGGLMKIAYPVDLFDPNLIDGHYNVSHMWSLILGNNQGMGDHEGLRMLDFLVPEKMVKRFDGPATDISDLWKVLGRPEVDGGYIAGTIIKPKLGLRPEPFAKACYDFWLGGDFIKNDEPQANQNFCPMEVVIPKVAEAMDRAQQATGQAKLFSANVTADFHEEMIKRGEYVLGEFAKYGNEKHVAFLVDGFVTGPAGVTTSRRAFPDTYLHFHRAGHGAVTSYKSPMGMDPLCYMKLARLMGASGIHTGTMGYGKMEGHNDERVLAYMLERDECQGPYFYQKWYGMKPTTPIISGGMDALRLPGFFENLGHGNVINTCGGGSFGHIDSPAAGGISLGQAYACWKTGAEPIEAPREFARAFESFPGDADKIFPGWREKLGVHK
notes: form-II rubisco large subunit from Hydrogenovibrio marinus; scarless tag cleavage gives the native rubisco; source: E. coli BL21(DE3), purified (nickel magnetic beads, eluted by on-bead cleavage of the SUMO tag with bdSENP1); not shown: 14xHis, N-terminal, cleaved; bdSUMO, N-terminal, cleaved
stoichiometry N [6]: 2
